Laboratory results as given in US10919943B2, “Mutant proteins enabling agrochemical control of plant gene expression” (The Regents of the University of California, priority 2016, dated 2021).
Substitutions are numbered along the chain they refer to. Numbers in names are those of the source.

B1: E203T: HAB1 mutant (protein, listed as Arabidopsis thaliana)
chain: MEEMTPAVAMTLSLAANTMCESSPVEITQLKNVTDAADLLSDSENQSFCNGGTECTMEDVSELEEVGEQDLLKTLSDTRSGSSNVFDEDDVLSVVEDNSAVISEGLLVVDAGSELSLSNTAMEIDNGRVLATAIIVGESSIEQVPTAEVLIAGVNQDTNTSEVVIRLPDENSNHLVKGRSVYELDCIPLWGTVSIQGNRSEMTDAFAVSPHFLKLPIKMLMGDHEGMSPSLTHLTGHFFGVYDGHGGHKVADYCRDRLHFALAEEIERIKDELCKRNTGEGRQVQWDKVFTSCFLTVDGEIEGKIGRAVVGSSDKVLEAVASETVGSTAVVALVCSSHIVVSNCGDSRAVLFRGKEAMPLSVDHKPDREDEYARIENAGGKVIQWQGARVFGVLAMSRSIGDRYLKPYVIPEPEVTFMPRSREDECLILASDGLWDVMNNQEVCEIARRRILMWHKKNGAPPLAERGKGIDPACQAAADYLSMLALQKGSKDNISIIVIDLKAQRKFKTRT
B2: E203W: HAB1 mutant (protein, listed as Arabidopsis thaliana)
chain: B1 chain with T203W
B3: E203D: HAB1 mutant (protein, listed as Arabidopsis thaliana)
chain: B1 chain with T203D
B4: H245A: HAB1 mutant (protein, UniProt Q9CAJ0 23-511, looked up, variant H245A)
Protein phosphatase 2C 16: SPVEITQLKNVTDAADLLSDSENQSFCNGGTECTMEDVSELEEVGEQDLLKTLSDTRSGSSNVFDEDDVLSVVEDNSAVISEGLLVVDAGSELSLSNTAMEIDNGRVLATAIIVGESSIEQVPTAEVLIAGVNQDTNTSEVVIRLPDENSNHLVKGRSVYELDCIPLWGTVSIQGNRSEMEDAFAVSPHFLKLPIKMLMGDHEGMSPSLTHLTGHFFGVYDGAGGHKVADYCRDRLHFALAEEIERIKDELCKRNTGEGRQVQWDKVFTSCFLTVDGEIEGKIGRAVVGSSDKVLEAVASETVGSTAVVALVCSSHIVVSNCGDSRAVLFRGKEAMPLSVDHKPDREDEYARIENAGGKVIQWQGARVFGVLAMSRSIGDRYLKPYVIPEPEVTFMPRSREDECLILASDGLWDVMNNQEVCEIARRRILMWHKKNGAPPLAERGKGIDPACQAAADYLSMLALQKGSKDNISIIVIDLKAQRKFKTRT
B5: G246F: HAB1 mutant (protein, UniProt Q9CAJ0 23-511, looked up, variant G246F)
Protein phosphatase 2C 16: B4 Protein phosphatase 2C 16 with A223H, G224F
B6: G246M: HAB1 mutant (protein, UniProt Q9CAJ0 23-511, looked up, variant G246M)
Protein phosphatase 2C 16: B4 Protein phosphatase 2C 16 with A223H, G224M
B7: G246H: HAB1 mutant (protein, UniProt Q9CAJ0 23-511, looked up, variant G246H)
Protein phosphatase 2C 16: B4 Protein phosphatase 2C 16 with A223H, G224H
B8: H245N: HAB1 mutant (protein, UniProt Q9CAJ0 23-511, looked up, variant H245N)
Protein phosphatase 2C 16: B4 Protein phosphatase 2C 16 with A223N
B9: H245E: HAB1 mutant (protein, UniProt Q9CAJ0 23-511, looked up, variant H245E)
Protein phosphatase 2C 16: B4 Protein phosphatase 2C 16 with A223E
B10: H245V: HAB1 mutant (protein, UniProt Q9CAJ0 23-511, looked up, variant H245V)
Protein phosphatase 2C 16: B4 Protein phosphatase 2C 16 with A223V
B11: G246R: HAB1 mutant (protein, UniProt Q9CAJ0 23-511, looked up, variant G246R)
Protein phosphatase 2C 16: B4 Protein phosphatase 2C 16 with A223H, G224R
B12: G246S: HAB1 mutant (protein, UniProt Q9CAJ0 23-511, looked up, variant G246S)
Protein phosphatase 2C 16: B4 Protein phosphatase 2C 16 with A223H, G224S
B13: G246T: HAB1 mutant (protein, UniProt Q9CAJ0 23-511, looked up, variant G246T)
Protein phosphatase 2C 16: B4 Protein phosphatase 2C 16 with A223H, G224T
B14: H245D: HAB1 mutant (protein, UniProt Q9CAJ0 23-511, looked up, variant H245D)
Protein phosphatase 2C 16: B4 Protein phosphatase 2C 16 with A223D
B15: H245S: HAB1 mutant (protein, UniProt Q9CAJ0 23-511, looked up, variant H245S)
Protein phosphatase 2C 16: B4 Protein phosphatase 2C 16 with A223S
B16: G246P: HAB1 mutant (protein, UniProt Q9CAJ0 23-511, looked up, variant G246P)
Protein phosphatase 2C 16: B4 Protein phosphatase 2C 16 with A223H, G224P
B17: G246A: HAB1 mutant (protein, UniProt Q9CAJ0 23-511, looked up, variant G246A)
Protein phosphatase 2C 16: B4 Protein phosphatase 2C 16 with A223H, G224A
B18: H245Q: HAB1 mutant (protein, UniProt Q9CAJ0 23-511, looked up, variant H245Q)
Protein phosphatase 2C 16: B4 Protein phosphatase 2C 16 with A223Q
B19: G246V: HAB1 mutant (protein, UniProt Q9CAJ0 23-511, looked up, variant G246V)
Protein phosphatase 2C 16: B4 Protein phosphatase 2C 16 with A223H, G224V
B20: G246Y: HAB1 mutant (protein, UniProt Q9CAJ0 23-511, looked up, variant G246Y)
Protein phosphatase 2C 16: B4 Protein phosphatase 2C 16 with A223H, G224Y
B21: G246C: HAB1 mutant (protein, UniProt Q9CAJ0 23-511, looked up, variant G246C)
Protein phosphatase 2C 16: B4 Protein phosphatase 2C 16 with A223H, G224C
B22: G246Q: HAB1 mutant (protein, UniProt Q9CAJ0 23-511, looked up, variant G246Q)
Protein phosphatase 2C 16: B4 Protein phosphatase 2C 16 with A223H, G224Q
B23: H245P: HAB1 mutant (protein, UniProt Q9CAJ0 23-511, looked up, variant H245P)
Protein phosphatase 2C 16: B4 Protein phosphatase 2C 16 with A223P
B24: H245T: HAB1 mutant (protein, UniProt Q9CAJ0 23-511, looked up, variant H245T)
Protein phosphatase 2C 16: B4 Protein phosphatase 2C 16 with A223T
B25: H245M: HAB1 mutant (protein, UniProt Q9CAJ0 23-511, looked up, variant H245M)
Protein phosphatase 2C 16: B4 Protein phosphatase 2C 16 with A223M
B26: H245C: HAB1 mutant (protein, UniProt Q9CAJ0 23-511, looked up, variant H245C)
Protein phosphatase 2C 16: B4 Protein phosphatase 2C 16 with A223C
B27: H245Y: HAB1 mutant (protein, UniProt Q9CAJ0 23-511, looked up, variant H245Y)
Protein phosphatase 2C 16: B4 Protein phosphatase 2C 16 with A223Y
B28: G246D: HAB1 mutant (protein, UniProt Q9CAJ0 23-511, looked up, variant G246D)
Protein phosphatase 2C 16: B4 Protein phosphatase 2C 16 with A223H, G224D
B29: H245F: HAB1 mutant (protein, UniProt Q9CAJ0 23-511, looked up, variant H245F)
Protein phosphatase 2C 16: B4 Protein phosphatase 2C 16 with A223F
B30: H245K: HAB1 mutant (protein, UniProt Q9CAJ0 23-511, looked up, variant H245K)
Protein phosphatase 2C 16: B4 Protein phosphatase 2C 16 with A223K
B31: G246N: HAB1 mutant (protein, UniProt Q9CAJ0 23-511, looked up, variant G246N)
Protein phosphatase 2C 16: B4 Protein phosphatase 2C 16 with A223H, G224N
B32: G246W: HAB1 mutant (protein, UniProt Q9CAJ0 23-511, looked up, variant G246W)
Protein phosphatase 2C 16: B4 Protein phosphatase 2C 16 with A223H, G224W
B33: G246L: HAB1 mutant (protein, UniProt Q9CAJ0 23-511, looked up, variant G246L)
Protein phosphatase 2C 16: B4 Protein phosphatase 2C 16 with A223H, G224L
B34: H245L: HAB1 mutant (protein, UniProt Q9CAJ0 23-511, looked up, variant H245L)
Protein phosphatase 2C 16: B4 Protein phosphatase 2C 16 with A223L
B35: H245R: HAB1 mutant (protein, UniProt Q9CAJ0 23-511, looked up, variant H245R)
Protein phosphatase 2C 16: B4 Protein phosphatase 2C 16 with A223R
B36: H245W: HAB1 mutant (protein, UniProt Q9CAJ0 23-511, looked up, variant H245W)
Protein phosphatase 2C 16: B4 Protein phosphatase 2C 16 with A223W
B37: H245G: HAB1 mutant (protein, UniProt Q9CAJ0 23-511, looked up, variant H245G)
Protein phosphatase 2C 16: B4 Protein phosphatase 2C 16 with A223G
B38: G246E: HAB1 mutant (protein, UniProt Q9CAJ0 23-511, looked up, variant G246E)
Protein phosphatase 2C 16: B4 Protein phosphatase 2C 16 with A223H, G224E
B39: H245I: HAB1 mutant (protein, UniProt Q9CAJ0 23-511, looked up, variant H245I)
Protein phosphatase 2C 16: B4 Protein phosphatase 2C 16 with A223I

Target: T1, PYR1 (Arabidopsis thaliana, UniProt O49686)
T1 construct: expressed in transfected cells; host or cells: S. cerevisiae strain Y190
T1 sequence (O49686 1-191): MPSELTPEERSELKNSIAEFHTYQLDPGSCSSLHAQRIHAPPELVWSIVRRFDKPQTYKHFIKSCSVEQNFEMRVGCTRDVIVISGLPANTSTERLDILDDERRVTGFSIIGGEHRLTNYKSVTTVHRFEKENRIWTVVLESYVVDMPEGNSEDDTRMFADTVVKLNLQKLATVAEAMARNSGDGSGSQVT
Experiment: Yeast two hybrid of pACT-HAB1 site saturation mutants with pBD-PYR1 on 10 μM ABA, β-galactosidase staining
Assay type: cell-based
Design: key: x: Mutations in HAB1 that disrupt HAB1 interaction with PYR1
Details: S. cerevisiae Y190, 10 μM ABA; dead = lack of detectable staining in comparison to wild type control
Procedure, shortened: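 Read-out is β-galactosidase staining of chloroform-lysed Y190 colonies grown 2 days at 30 °C on SD (-Leu,-Trp) plus 10 μM ABA. Each pACT-HAB1 single-substitution mutant (N-terminally truncated by three residues) was paired with pBD-PYR1; absence of detectable staining relative to wild type scored as dead.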

| Molecule | Mutations in HAB1 that disrupt HAB1 interaction with PYR1 |
| --- | --- |
| B1 | x |
| B2 | x |
| B3 | x |
| B4 | x |
| B5 | x |
| B6 | x |
| B7 | x |
| B8 | x |
| B9 | x |
| B10 | x |
| B11 | x |
| B12 | x |
| B13 | x |
| B14 | x |
| B15 | x |
| B16 | x |
| B17 | x |
| B18 | x |
| B19 | x |
| B20 | x |

| Molecule | Mutations in HAB1 that disrupt HAB1 interaction with PYR1 |
| --- | --- |
| B21 | x |
| B22 | x |
| B23 | x |
| B24 | x |
| B25 | x |
| B26 | x |
| B27 | x |
| B28 | x |
| B29 | x |
| B30 | x |
| B31 | x |
| B32 | x |
| B33 | x |
| B34 | x |
| B35 | x |
| B36 | x |
| B37 | x |
| B38 | x |
| B39 | x |
